Data: US20060239990A1 (published 2006)

T1: retinoblastoma protein (RB), endogenous in cultured cell lines (293, U2OS) (human, UniProt P06400 2-928)
T1 construct: also called endogenous RB
T1 sequence (looked up): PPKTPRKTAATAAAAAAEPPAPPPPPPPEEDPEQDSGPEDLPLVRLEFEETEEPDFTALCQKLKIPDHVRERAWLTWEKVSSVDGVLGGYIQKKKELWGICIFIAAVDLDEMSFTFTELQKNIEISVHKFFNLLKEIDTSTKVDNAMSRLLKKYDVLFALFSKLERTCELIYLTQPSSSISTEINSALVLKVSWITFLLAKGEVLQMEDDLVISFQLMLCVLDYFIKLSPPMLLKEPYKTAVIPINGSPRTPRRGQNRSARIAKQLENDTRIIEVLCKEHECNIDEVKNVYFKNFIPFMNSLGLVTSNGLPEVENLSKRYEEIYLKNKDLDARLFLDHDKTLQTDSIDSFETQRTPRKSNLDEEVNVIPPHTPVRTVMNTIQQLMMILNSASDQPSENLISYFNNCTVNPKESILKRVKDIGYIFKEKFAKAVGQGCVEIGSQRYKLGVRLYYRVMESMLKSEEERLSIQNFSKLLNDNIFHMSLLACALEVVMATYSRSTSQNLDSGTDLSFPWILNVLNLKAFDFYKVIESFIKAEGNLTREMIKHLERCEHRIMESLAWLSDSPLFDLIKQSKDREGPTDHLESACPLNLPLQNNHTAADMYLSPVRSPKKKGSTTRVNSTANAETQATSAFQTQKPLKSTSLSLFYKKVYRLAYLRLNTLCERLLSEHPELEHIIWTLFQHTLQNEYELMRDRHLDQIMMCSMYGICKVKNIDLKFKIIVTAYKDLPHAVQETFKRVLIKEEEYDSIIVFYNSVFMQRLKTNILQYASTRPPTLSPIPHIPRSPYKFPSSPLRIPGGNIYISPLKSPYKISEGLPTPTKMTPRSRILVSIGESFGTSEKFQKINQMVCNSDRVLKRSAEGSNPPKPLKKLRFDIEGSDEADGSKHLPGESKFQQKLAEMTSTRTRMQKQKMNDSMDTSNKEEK

T2: mouse retinoblastoma protein (RB), endogenous in MEFs (mouse, UniProt P13405 2-921)
T2 sequence (looked up): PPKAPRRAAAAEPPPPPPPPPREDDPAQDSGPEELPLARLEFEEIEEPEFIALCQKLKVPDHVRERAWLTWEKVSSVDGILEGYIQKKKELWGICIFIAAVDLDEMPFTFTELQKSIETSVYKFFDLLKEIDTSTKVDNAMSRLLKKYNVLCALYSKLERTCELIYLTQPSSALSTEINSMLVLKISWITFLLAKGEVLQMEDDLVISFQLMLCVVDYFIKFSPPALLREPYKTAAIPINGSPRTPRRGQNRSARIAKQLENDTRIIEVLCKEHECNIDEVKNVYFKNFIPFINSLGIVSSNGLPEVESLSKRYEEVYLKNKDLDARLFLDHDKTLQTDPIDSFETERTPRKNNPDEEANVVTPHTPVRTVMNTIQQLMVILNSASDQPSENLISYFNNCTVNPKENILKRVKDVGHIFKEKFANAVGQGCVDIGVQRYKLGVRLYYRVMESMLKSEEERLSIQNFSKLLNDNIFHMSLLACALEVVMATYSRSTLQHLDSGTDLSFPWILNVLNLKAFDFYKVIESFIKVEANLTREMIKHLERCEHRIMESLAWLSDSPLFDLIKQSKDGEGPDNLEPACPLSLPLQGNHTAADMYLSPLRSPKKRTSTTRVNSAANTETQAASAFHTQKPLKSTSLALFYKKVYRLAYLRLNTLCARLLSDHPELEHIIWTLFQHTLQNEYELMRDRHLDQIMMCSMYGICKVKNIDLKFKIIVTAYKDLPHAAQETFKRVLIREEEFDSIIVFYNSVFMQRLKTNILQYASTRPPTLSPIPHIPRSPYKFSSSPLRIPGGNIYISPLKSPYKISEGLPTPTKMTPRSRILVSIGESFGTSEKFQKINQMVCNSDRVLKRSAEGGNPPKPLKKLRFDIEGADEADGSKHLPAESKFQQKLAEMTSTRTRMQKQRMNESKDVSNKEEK

B1: HA-tagged PRMT2 (human Protein Arginine N-Methyltransferase 2, expressed from pVR1012-PRMT2-HA) (enzyme)
chain: MATSGDCPRSESQGEEPAECSEAGLLQEGVQPEEFVAIADYAATDETQLSFLRGEKILILRQTTADWWWGERAGCCGYIPANHVGKHVDEYDPEDTWQDEEYFGSYGTLKLHLEMLADQPRTTKYHSVILQNKESLTDKVILDVGCGTGIISLFCAHYARPRAVYAVEASEMAQHTGQLVLQNGFADIITVYQQKVEDVVLPEKVDVLVSEWMGTCLLFEFMIESILYARDAWLKEDGVIWPTMAALHLVPCSADKDYRSKVLFWDNAYEFNLSALKSLAVKEFFSKPKYNHILKPEDCLSEPCTILQLDMRTVQISDLETLRGELRFDIRKAGTLHGFTAWFSVHFQSLQEGQPPQVLSTGPFHPTTHWKQTLFMMDDPVPVHTGDVVTGSVVLQRNPVWRRHMSVALSWAVTSRQDPTSQKVGEKVFPIWR
notes: Expressed by transient transfection in 293 or Saos 2 cells; also called HA-PRMT2; not shown: HA tag at the C-terminus
B2: mouse PRMT2 (untagged; endogenous in NIH3T3 cells, MEFs, GT1-7 cells and VSMC, or expressed from mouse PRMT2 cDNA in HEK293 cells) (enzyme, UniProt Q9R144 1-448, looked up)
chain: MEAPGEGPCSESQVIPVLEEDPVDYGCEMQLLQDGAQLQLQLQPEEFVAIADYTATDETQLSFLRGEKILILRQTTADWWWGERAGCCGYIPANHLGKQLEEYDPEDTWQDEEYFDSYGTLKLHLEMLADQPRTTKYHSVILQNKESLKDKVILDVGCGTGIISLFCAHHARPKAVYAVEASDMAQHTSQLVLQNGFADTITVFQQKVEDVVLPEKVDVLVSEWMGTCLLFEFMIESILYARDTWLKGDGIIWPTTAALHLVPCSAEKDYHSKVLFWDNAYEFNLSALKSLAIKEFFSRPKSNHILKPEDCLSEPCTILQLDMRTVQVPDLETMRGELRFDIQKAGTLHGFTAWFSVYFQSLEEGQPQQVVSTGPLHPTTHWKQTLFMMDDPVPVHTGDVVHGFCCVTKKSGMEKAHVCLSELGCHVRTRSHVSTELETGSFRSGGDS
notes: also called endogenous PRMT2
B3: mouse PRMT2-Flag (FLAG-tagged full-length PRMT-2) (enzyme, UniProt Q9R144 1-448, looked up)
chain: B2 chain
notes: Printed both as PRMT2-Flag and as Flag-PRMT2, so the end that carries the tag is uncertain; Expressed in HEK293 cells; also called Flag-PRMT2; Flag PRMT2 fusion protein; not shown: Flag tag
B4: IκB-α, endogenous in 293 cells (other, human, UniProt P25963 1-317, looked up)
chain: MFQAAERPQEWAMEGPRDGLKKERLLDDRHDSGLDSMKDEEYEQMVKELQEIRLEPQEVPRGSEPWKQQLTEDGDSFLHLAIIHEEKALTMEVIRQVKGDLAFLNFQNNLQQTPLHLAVITNQPEIAEALLGAGCDPELRDFRGNTPLHLACEQGCLASVGVLTQSCTTPHLHSILKATNYNGHTCLHLASIHGYLGIVELLVSLGADVNAQEPCNGRTALHLAVDLQNPDLVSLLLKCGADVNRVTYQGYSPYQLTWGRPSTRIQQQLGQLTLENLQMLPESEDEESYDTESEFTEFTEDELPYDDCVFGGQRLTL
notes: also called endogenous IκB-α

What was measured:
[1] = biological target: T1, retinoblastoma protein (RB), endogenous …; test: immunoprecipitation of endogenous RB from 293 cells transfected with HA-tagged PRMT2, Western blot with anti-HA antibody
Procedure: FIG. 8A-C illustrate that PRMT2 interacts with retinoblastoma protein (RB). […] GST-RB and GST were bound to glutathione sepharose beads and incubated with S³⁵-labeled in vitro translated PRMT1, PRMT2, PRMT3, and PRMT4. Co-precipitated labeled PRMTs were analyzed by SDS-PAGE. […] HA-tagged PRMT2 (+) or control vectors (−) were transfected in 293 cells. Cell lysates were immunoprecipitated with rabbit RB antibodies or IgG and followed by Western blot analysis using mouse HA and RB antibodies (upper panel). A Western blot using mouse HA antibodies detects HA-tagged PRMT2 (lower panel).
The interaction of PRMT2 with RB was then analyzed in vivo. HA-tagged PRMT2 expression vectors or control vectors were transfected into 293 cells, and immunoprecipitation of endogenous RB was followed by a Western blot analysis using an anti-HA antibody. PRMT2 directly interacted with RB in contrast to control vectors (FIG. 8C).

RelA (p65) in 293 cells = biological target: T3, RelA (p65) in 293 cells (UniProt Q04206 1-551); test: immunoprecipitation with anti-HA antibody from transfected 293 cells, immunoblot for p65
T3 construct: also called endogenous p65
Source text: (§1) To map IκB-α domains that interacted with PRMT2, 293 cells were transfected with HA-tagged PRMT2 (FIG. 5C) and His-tagged derivatives of the indicated IκB-α expression vectors (FIG. 5B) as indicated. 24 hrs later cells were harvested in cell lysis buffer and cell lysates were immunoprecipitated with agarose-conjugated antibody to His (IκB-α) (FIG. 5D, lanes 1-4) and HA (PRMT2) (FIG. 5D, lanes 5-6), fractionated by SDS-PAGE and analyzed by immunoblotting with antibody to HA to detect PRMT2 ((FIG. 5D lanes 1, 2 and lanes 5, 6) and His (FIG. 5D, lanes 3, 4). To map the region of PRMT2 that interacted with endogenous IκB-α and p65, 293 cells were transfected with HA-tagged PRMT2 (FIG. 5C) derivatives as indicated. Cells were harvested 24 hrs after transfection in cell lysis buffer, immunoprecipitated with agarose-conjugated antibody to HA to detect PRMT2 and derivatives (FIG. 5E, lanes 7-15), fractionated by SDS-PAGE and analyzed by immunoblotting with antibody to p65 (FIG. 5E, lanes 7-9), IκB-α (FIG. 5E, lanes 10-12) or HA (FIG. 5E, lanes 13-15).
A polyclonal antibody to recombinant PRMT2 was used to examine the association between endogenous PRMT2 and IκB-α in vivo. […] The domain of IκB-α required for association with PRMT2 was mapped using in vivo immunoprecipitation assays where HA-tagged PRMT2 was coexpressed with truncation mutants of His-tagged IκB-α (FIG. 5B) in 293 cells. The ankyrin domain was both necessary and sufficient for this association (FIG. 5D, lanes 1 and 2). The domain of PRMT2 that interacted with endogenous IκB-α was mapped by immunoprecipitation following expression HA-tagged PRMT2 truncation mutants (FIG. 5C). […] When the ratios of PRMT2 or PRMT2-A binding to IκB-α were compared, both interacted with IκB-α with similar affinity.

[2] = biological target: T4, mouse STAT3 (endogenous in GT1-7 cells and VSMC, or expressed from mouse STAT3 pcDNA3 in HEK293 cells) (mouse, UniProt P42227 2-770); test: immunoprecipitation with anti-STAT3 antibody from GT1-7 cell extracts with or without leptin (100 nM), immunoblot with anti-PRMT-2 antibody
Procedure: A mouse hypothalamic cell line, GT1-7, was established that expressed both STAT3 and PRMT-2 (FIG. 21B), and used as a cell model for the study of leptin signaling. To further examine whether leptin stimulated endogenous interaction between PRMT-2 and STAT3, extracts from the cells that were untreated or treated with mouse leptin (100 nM) were subjected to immunoprecipitation with anti-STAT3 antibody, followed by immunoblotting with anti-PRMT-2 antibody. […] However, treatment with leptin enhanced that amount PRMT-2 that co-precipitated with STAT3 (FIG. 21B, lane 3). PRMT-2 was not detectable in immunoprecipitates obtained with preimmune rabbit IgG (FIG. 21B, lane 1).

[3] = biological target: T2, mouse retinoblastoma protein (RB), …; test: cell-based or functional assay
[4] = biological target: T4, mouse STAT3 (endogenous in GT1-7 cells …); test: immunoprecipitation with anti-Flag antibody from HEK293 cells transfected with PRMT-2-Flag and STAT3, immunoblot
Procedure: (§2) To examine whether a direct interaction occurs between PRMT-2 and STAT3 in vivo, FLAG-tagged full-length PRMT-2 cDNA and/or STAT3 cDNA were transiently transfected into HEK293 cells. After culturing the transfected cells, an immunoprecipitation was performed on cell lysates using anti-Flag antibodies followed by immunoblotting with anti-PRMT-2 antibody. […] Identical results were observed when using anti-STAT3 antibodies for immunoprecipitation (data not shown).

[5] = biological target: T5, STAT3, endogenous in HEK293 cells (human, UniProt P40763 2-770); test: immunoprecipitation with anti-Flag antibody from transfected HEK293 cells, immunoblot
T5 construct: also called endogenous STAT3
Procedure: as §2

[6] = biological target: B1; test: immunoprecipitation with anti-HA antibody from transfected 293 cells, immunoblot for endogenous IκB-α
Source text: as §1
A polyclonal antibody to recombinant PRMT2 was used to examine the association between endogenous PRMT2 and IκB-α in vivo. […] The domain of IκB-α required for association with PRMT2 was mapped using in vivo immunoprecipitation assays where HA-tagged PRMT2 was coexpressed with truncation mutants of His-tagged IκB-α (FIG. 5B) in 293 cells. […]

T4 sequence (P42227 2-770 limits assumed): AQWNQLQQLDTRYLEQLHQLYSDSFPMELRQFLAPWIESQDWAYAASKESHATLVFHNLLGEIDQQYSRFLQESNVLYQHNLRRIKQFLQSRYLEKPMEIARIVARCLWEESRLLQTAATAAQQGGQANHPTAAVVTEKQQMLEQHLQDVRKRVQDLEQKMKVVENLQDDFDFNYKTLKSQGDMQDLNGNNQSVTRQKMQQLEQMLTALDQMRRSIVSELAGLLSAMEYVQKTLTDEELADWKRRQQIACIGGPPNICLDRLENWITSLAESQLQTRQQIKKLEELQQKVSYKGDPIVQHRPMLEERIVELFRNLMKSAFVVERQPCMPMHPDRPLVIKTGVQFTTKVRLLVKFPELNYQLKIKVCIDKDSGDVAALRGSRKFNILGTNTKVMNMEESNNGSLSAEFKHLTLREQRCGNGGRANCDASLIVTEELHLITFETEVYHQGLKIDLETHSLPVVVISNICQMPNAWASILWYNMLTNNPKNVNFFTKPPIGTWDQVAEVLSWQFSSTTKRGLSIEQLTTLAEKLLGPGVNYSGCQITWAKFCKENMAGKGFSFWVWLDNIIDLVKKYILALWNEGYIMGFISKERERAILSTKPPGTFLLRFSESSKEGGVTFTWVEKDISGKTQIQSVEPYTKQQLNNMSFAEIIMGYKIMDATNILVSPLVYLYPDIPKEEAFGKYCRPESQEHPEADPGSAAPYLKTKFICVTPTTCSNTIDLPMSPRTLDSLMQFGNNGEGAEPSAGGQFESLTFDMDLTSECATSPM
T5 sequence (P40763 2-770 limits assumed): as the sequence (P42227 2-770 limits assumed) above, with D759E counted along it
T3 sequence (Q04206 whole entry): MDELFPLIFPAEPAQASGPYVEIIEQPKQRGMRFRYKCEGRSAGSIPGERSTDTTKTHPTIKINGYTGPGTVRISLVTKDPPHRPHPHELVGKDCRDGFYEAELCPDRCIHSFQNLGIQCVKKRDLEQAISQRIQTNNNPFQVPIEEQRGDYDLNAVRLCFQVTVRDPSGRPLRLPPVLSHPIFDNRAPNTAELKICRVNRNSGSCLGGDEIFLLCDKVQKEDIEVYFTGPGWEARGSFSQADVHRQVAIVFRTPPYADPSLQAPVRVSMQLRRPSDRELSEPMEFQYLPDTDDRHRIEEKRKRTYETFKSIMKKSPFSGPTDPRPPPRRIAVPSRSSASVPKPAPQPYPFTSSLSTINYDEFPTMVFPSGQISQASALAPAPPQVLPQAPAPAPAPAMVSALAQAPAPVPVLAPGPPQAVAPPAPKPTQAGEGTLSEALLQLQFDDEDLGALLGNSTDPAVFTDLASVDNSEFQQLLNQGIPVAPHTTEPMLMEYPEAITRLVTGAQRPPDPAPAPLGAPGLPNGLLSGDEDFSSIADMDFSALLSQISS

Binder: B1
binding result [1]: binds
binding result (RelA (p65) in 293 cells): no binding

Binder: B2
binding result [2]: binds
E2F reporter activity (E2F4B-Luc) in MEFs [3]: ~3 fold

Binder: B3
binding result [4]: binds
binding result [5]: binds

Binder: B4
binding result [6]: binds
